Values quoted from earlier work in patent publication US10544449B2, “Bis-biotinylation tags” (Pacific Biosciences of California, Inc., priority 2013, dated 2020).

How the values were obtained:
[1] = compared with streptavidin; cited from earlier work
[2] = cited from earlier work

| Substance | slower biotin off-rate [1] [fold] | accumulation in kidney, share of injected dose ([2]; injected streptavidin) | time remaining in the kidneys ([2]; mice, rats, and rabbits) [days] |
| --- | --- | --- | --- |
| traptavidin | ~10 | – | – |
| streptavidin | – | 15-20% | 3 to 4 |
